Assay: yeast display, Sf9 membrane polyspecificity reagent, FACS + sequencing; frameworks hold sequencing errors
How it was run: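 Sorting gates, low and high (top ~1%), were placed on anti-HA fluorescence to track expression and on streptavidin fluorescence to track reagent binding. A clone's polyreactivity label is taken from the gate it came out of. The reagent was 10% biotinylated, detergent-solubilized Sf9 membrane, applied for 1 hour at 4 °C to galactose-induced yeast display cells.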

Sequence: QVQLVESGGGLVQAGGSLRLSCAASGFTFAFYAMGWYRQAPGKERELVAAISWDGVTTYYADSVKGRFTISRDNAKNTVYLQMNSLKPEDTAVYYCAADYPDYAGSFWPSGMYYWGQGTQVTVSS
- polyreactivity (PSR sort gate): low polyreactivity

Sequence: QVQLVESGGGLVQAGGSLRLSCAASGRTFYRYAMGWYRQPPGKESELVARIRATGGSTYYADSVKGRFTISRDYAKNTVYSQMNSLKPEDTAVYYCAAKIRWGSTWLGAGDYWGQGTQVTVSS
- polyreactivity (PSR sort gate): high polyreactivity

Sequence: QVQHVESGGGLVQAGGSLRLSCAASGSTFARYGLGWYRQAPGKERELVASLTYTGGRTYADSVKGRFTFSRDNAKNTVYLQMNSLKPEDTAVYYCAARYRLWGQGTQVTVSS
- polyreactivity (PSR sort gate): low polyreactivity

Sequence: QVQLVESGGGLVQAGGSLRLSCAASGRILGYNARGWYRQAPGKEREFVATISKRTGSTRYADSVKGRFTISRDNAKNTVYLQMNSLKPEDTAVYYCAAYYGRFYGKYDYWGQGTQVTVSS
- polyreactivity (PSR sort gate): high polyreactivity

Sequence: QVQLVESGGGLVQAGGSLRLSCAASGLIFRFYAMGWYRQAPGKERELVAAISGGGGSTYYADSVKGRFTISRDNAKNTVYFQMNSLKPEDTAVYYCNTVNDKRAYGKMGYWGQGTQVTVSS
- polyreactivity (PSR sort gate): high polyreactivity

Sequence: QVQLVESGGGLVQAGGSLRLSCAASGITFYRYAMGWYRQAPGKERELVAAISWSGGSTYYADSVKGRFTFSRDNAKNTVYLQMNSLKPEDTAVYYCNKYIRYPFKRYGYWGQGTQVTLSS
- polyreactivity (PSR sort gate): high polyreactivity

Sequence: QVQLVESGGGLVQAGGSLRLRCAASGLTFRKYPMGWYRPAPGKERELVATISRNGGSTYSADSVKGRFTISSDNAKITVYLQMNSLKPEDTAVYYCAADYYTYDYAGYGYWGQGTQVTVSS
- polyreactivity (PSR sort gate): high polyreactivity

Sequence: QVQLVESGGGLVQAGGSLRISCAASGSIFDRNAMGWYRQAPGKERELVAGISSGGGTNYADSVKGRFTISRDNAKNTVYFQMNSLKPEDTAVYYCAVYRYLSNRVKYDYWGQGTQVTVSS
- polyreactivity (PSR sort gate): low polyreactivity

Sequence: QVQLVESGGGLVQAGGSLRLSCAASGSIFSSYAMGWYRQAPGKERELVAAITTRGDSTRYADSVKGRFTISRDNAKNTVYLQMNSLKPEHTAVYYCNARYRDPYWDSGYWGQGTQVTVSS
- polyreactivity (PSR sort gate): high polyreactivity

Sequence: QVHLVESGGGLVQAGVSLRLSCAASGSIFEGNGMGWYRQAPGKERELVAAITFRSGSTYYADSVKGRFTNSRDNAKNTVYLQMNSLKPEDTAVYYCAADEYYQVSAYDYWGQGTKVTVSS
- polyreactivity (PSR sort gate): low polyreactivity

Sequence: QVQLVESVGGLVQAGGSLRLSCAASGRTFVGNTMGWYRQAPGKERELVAAISGSGSRTYYADSVKGRFTISRDNAKNTVYLQMNSLKPEDTGVYYCASQGNYWGQGTQVTVSS
- polyreactivity (PSR sort gate): high polyreactivity

Sequence: QVQLVESGGGLVQAGGSLRLSCAASGFIFNQYAMGWYRQAPGKERELVAAIRGSGGRTYYADSVKGRFTISRDNAKNTVYFQMNSLKPEDTAVYYCAKQRFGYRRSPGDYWGQGTQVTVSS
- polyreactivity (PSR sort gate): high polyreactivity

Sequence: QVQLVESGGGLVQAGGSLRLSCAASGSIFGYYTMGLYRQAPGKERELVAAITSGGSTNYADSVKGRFTISRDNAKNTVYLQMNSLKPEDTAVYYCAKVSYYPWRYDYWGQGTQVTVSS
- polyreactivity (PSR sort gate): low polyreactivity

Sequence: QVQLVESGGGLVQAGGSLRLSCAASGFIFSPYAMGWYRQAPGKERELVAAINGGGRTYYADSVKGRFTISRDNAKNTVYLQMNSLKPEDTAVYYCAVDPISQGHMDYWGQGTQVTVSS
- polyreactivity (PSR sort gate): low polyreactivity

Sequence: QVQLVESGGGLVQAGGSLRLSCAASGRTFRYNVMGWYRQAPGKERELVASISRISGSTYYADSVKGRFTISRDNAKNTVYLQMNSLKPEDTADYYARAAGEYDYWGQGTQVTVSS
- polyreactivity (PSR sort gate): high polyreactivity

Sequence: QVQLVESGGGLVQAGGSLRLSCAASGLIFTDYVMGWYRQAPGKEREFVAAITGSAGRTYYADSVKGRFTISRDNAKNTVYLQMNSLKPEDTAVYYCNADYWWWHEYDYWGQGTQVTVSS
- polyreactivity (PSR sort gate): high polyreactivity

Sequence: QVQLVESGGGLVQAGGSLRLSCAASGSIFFDYGMGWYRQAPGKERELVATITRGTGSTYYADSVKGRFTISRDNAKNTVYLQMNSLKPEDTAVYYCAAGWHYVYRTPGFGYWGQGTQVTVSS
- polyreactivity (PSR sort gate): high polyreactivity

Sequence: QVQLVESGGGLVQAGGSLRLSCAASGLTFGYYTMGWYRQAPGKERELVAAITYSGGSTYYADSVKGRFTISRDNAKNTVYLQMNSLKPEDTAVYYCAAEGPVYTTYEYWGQGTQVTVSS
- polyreactivity (PSR sort gate): low polyreactivity

Sequence: QVQLVESGGGLVQAGGSLRLSCAASGYIFGYNAMGWYRQAPGKERELVATINSSDSTNYADSVKGRFTISRDNAKNTVYLQMNSLKPEDTAVYYCNKDHVRRSYPYDYWGQGTQVTVSS
- polyreactivity (PSR sort gate): low polyreactivity

Sequence: QVQLVESGVGLVQAGGSLRLRCAASGSTFIVYALRWSRQAPGKERELVAAISWNGGRTYYADSVKGRFTISRDNAKKTVYLQMNSLKPEDTAVYYCPATLYNTEDDYWGQGTQVTLSS
- polyreactivity (PSR sort gate): low polyreactivity

Sequence: QVQLVESGGGLVQAGGSLRLSCAASGFTFGSNTMGWYRQAPGKERELVAAITTSGDSTYYADSVKGRFTISRDNAKNTVYLQMNSLKPEDTAVYYCAAERRYGRYYRLVRLLGQGTQVTVSS
- polyreactivity (PSR sort gate): high polyreactivity

Sequence: QVQLVESGGGLVQAGGSLRLSCAASGSIFSPNAMGWYRQAPGKERELVAGISWSGDGTYYADSVKGRFTISRDNAKNTVYLQMNSLKPEDTAVYYCAARFGRYSHRYYYWGQGTQVTVSS
- polyreactivity (PSR sort gate): high polyreactivity

Sequence: QVQLVESGGGLVRAGGSLRLSCAASGSTFDINAMGWYRQAPGKERELVASITFSGGSTYYADSVKGRFTISRDNAKNTVYLQMNSLKPEDTAVYYCNKDEPQFSSYLYSFYPGYDYWGQGTQVTVSS
- polyreactivity (PSR sort gate): low polyreactivity

Sequence: QVQLVESGGGLVQAGGSLRLICAASGSIFVYNAMGWYRQAPGKERELVAAISYSGGRTYYADSVKGRFTISRDNAKNTVYLQMNSLKPEDTAVYYCAARSQRHKLSREYNYWGQGTQVTVSS
- polyreactivity (PSR sort gate): high polyreactivity

Sequence: QVQLVESGGGLVQAGGSLRLSCAASGSTFYPNAMGWYRQAPGKERELVAAISGDDSTYYADSVKGRFTISRDNAKNTVYLQMNSLKPEDTAVYYCAAGDYRIGYLYYYWGQGTQVTVSS
- polyreactivity (PSR sort gate): low polyreactivity

Sequence: QVQLVESGGGLVQAGGSLRLSCAASGRTFRSYAMGWYRQAPGKERELVAAIRGGGGRTHYADSVKGRFTISRDNAKNTVYLQMNSLKPEDTAVYYCAAGRPYLESKLYDYWGQGTHVTVSS
- polyreactivity (PSR sort gate): high polyreactivity

Sequence: QVQLVESGGGLVQAGGSLRLSCAASGRTFSSNTMGWYRQAPGKERELVAAISSTDSTYYADSVKGRFTISRDNAKNTVYLQMNSLKPEDTAVYYCNKVVGFRSYFGGYGYWGQGTQVTVSS
- polyreactivity (PSR sort gate): high polyreactivity

Sequence: QVQLVESGGGLVQAGGSLRLSCAASGSTFLKNAMGWSRQAPGKERELVAAISYSTTRTYYADSVKGRFTISRDNAKNTVYLQMNSLKPEDTAVYYCNKASYWGSGFDYWGQGTQVTVSS
- polyreactivity (PSR sort gate): low polyreactivity

Sequence: QVQLVESGGGLVQARGSLRLSCAGSGRTFGYYAMGWYRHAPGKERELVAAIDQSDTYYADSVKGRFTISRDNAKITVSLQMNSLKPEDTAVYYCAADGDPSIEDEYWGQGTQVTVSS
- polyreactivity (PSR sort gate): high polyreactivity

Sequence: QVKLVESGGGLVQAGGSLRLSCAASGRIFRFNPMGCYRQAPGKERELVAASNWRGGTTYADSVKGRFTISRDNAKNTVYLQMNSLKPEDTAVYYCNAGYGVTKWPYEERYDYWGQGTQVTLSS
- polyreactivity (PSR sort gate): high polyreactivity

Sequence: QVQLVESGGGLVQAGGSLRLSCAASGNTFDVYAMGWYRQAPGKEREFVARISGRVGSTYYADSVKGRFTISRDNAKYTVYLQMNSLKPEDTAVYYCNRRYQSRNMGYWGQGTQVTVSS
- polyreactivity (PSR sort gate): high polyreactivity

Sequence: QVQLVESGGGLVQAGGSLRLSCAASGITFPYYVMGWYRQAPGKERELVAAISKSVGRTYYADSVKGRFTISRDNAKNTVYLQMNSLKPEDTAVYYCAAYSSYYVHRFQHYDYWGQGTQVTVSS
- polyreactivity (PSR sort gate): high polyreactivity

Sequence: QVQLVESGGGLVQAGGSLRLSCAASGRTFVSYTMGWYRQAPGKERELVAAISSGGSTTYADSVKGRFTISRDNAKNTVYLQMNSLKPEDTAVYYCNARYGWSYWSKYDYWGQGTQVTVSS
- polyreactivity (PSR sort gate): high polyreactivity

Sequence: QVQLVESGGGLVQAGGSLRLSCAASGSTFGNNAKGWYRQAPGKERELVAAITFRGTSTYADSVKGRFTISRDYAKNTVYLQMNSLKPEDTAVYYCAAVVYFVSYRFYYWGQGTQVTVSS
- polyreactivity (PSR sort gate): high polyreactivity

Sequence: QVQLLESGGGLVQPGGSLRLSCAASGSTFDSYVKGWYRKAPGKERELVAANSSDDSTYYADSVKGRFTISRDNAKNTVYLQMISLKPEDTAVYYCAATNFRDYYCSWNYYYWGQGTQVTVSS
- polyreactivity (PSR sort gate): low polyreactivity

Sequence: QVQLVESGGGLVQAGGSLRLSSAASGSTFTSYAMGWYRQAPGNEWELVAAINSGGGTNYADSVKGRFTISRDNAKNTVYLQMNSLKPEDTAVYYCAKSRYDYTKTEGGYWGQGTQGTVSS
- polyreactivity (PSR sort gate): low polyreactivity

Sequence: QVQLVESGGGLVQAGGSLRLSCAASGSIFSIYAMGWYRQAPGKERELVAAINWIGTSTYYADSVKGRFTISRDNAKNTVYLQMNSLKPEDTAVYYCAAVSRRVSPYLSARDYCGQGTQVTVSS
- polyreactivity (PSR sort gate): high polyreactivity

Sequence: QVQLVESGVGLVKAGGILRLSCAASGFTFASNVMGWSRQAPGKERELVAAITSGASTNYADSVKGRFTISRDNAKNTVYLQMNSLKPEDTAVYYCAAGRQWYVFYEFDYWGQGTQVTVSS
- polyreactivity (PSR sort gate): high polyreactivity

Sequence: QVQLVESGGGLVQAGGSLSLSCAASGSTFDRNAMGWYRQAPGKERELVAGISFSGGSTYYADSVKGRFTISRDNAKNTVYLQMNSLKPEDTAVYYCAASTYQPGAVPFDYWGQGTQVTVSS
- polyreactivity (PSR sort gate): low polyreactivity

Sequence: QVQLVESGGGLVQAGGSLRLSCAGSGSISYFNAMGWYRQAPGKERELVAAISYSGGSTYYADSVKGRFTISRDNAKNTVYLQMNSLKPEDTAVYYCAADRLIGWRKTYYYWGQGTQVTVSS
- polyreactivity (PSR sort gate): high polyreactivity

Sequence: HVQLVESGGGLVQAGGSLRLSCAASGSILDGKALGWYRQAPGKERERVAGISESDGSTNYADSVKGRFTISRDNAKNTVYLQMNSLKPEDTAVSYCAADIWTSGDIPYDYWGQGTQVTVSS
- polyreactivity (PSR sort gate): low polyreactivity

Sequence: QVQLVESGGGLVQAGGSLRLSCDASGNTFVRYAMGWFRQAPGKERELVAGISASGGSTSYADSVKGRFTISRDNAKNTVYLQMNSLKPEDTAVYYCARNYWLYSSSYDSWGQGTQVTVSS
- polyreactivity (PSR sort gate): high polyreactivity

Sequence: QVQLVESGGGLVQAGGSLRLSCAASGSIFGGNAMGWYRQAAGKERELVAAITQSGGRTYYADSVKGRFTISRDNAKNTVYLQMNSLKPEDTAVYYCNRVYKSQTTDSFPLSYYYWGQGTQVTVSS
- polyreactivity (PSR sort gate): high polyreactivity
